Experimental data: publication PMC3901001

Biological target: full-length human α isoform of CaMKII (CaMKIIα), wild type (human) (UniProt Q9UQM7)
Experiment: single-molecule TIRF colocalisation; mixed with ATP in the absence of Ca2+/CaM (37°C by the DLS legend)

Chain of UniProt Q9UQM7 (Q9UQM7 whole entry, canonical isoform): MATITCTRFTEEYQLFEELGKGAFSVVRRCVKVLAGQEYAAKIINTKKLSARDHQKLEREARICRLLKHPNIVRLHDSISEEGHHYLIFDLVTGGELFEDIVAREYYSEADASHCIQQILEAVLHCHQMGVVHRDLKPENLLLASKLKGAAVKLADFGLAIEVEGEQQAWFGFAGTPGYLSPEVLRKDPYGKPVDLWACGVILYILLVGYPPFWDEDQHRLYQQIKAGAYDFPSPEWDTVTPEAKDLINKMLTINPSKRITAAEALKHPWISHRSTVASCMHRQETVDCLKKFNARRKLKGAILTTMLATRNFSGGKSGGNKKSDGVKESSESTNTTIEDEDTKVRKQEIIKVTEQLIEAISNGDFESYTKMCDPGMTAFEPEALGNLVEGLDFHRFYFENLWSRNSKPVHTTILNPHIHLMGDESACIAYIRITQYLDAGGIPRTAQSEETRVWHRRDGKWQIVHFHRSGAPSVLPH

percent colocalisation (plateau): 60%
Substance: CaMKII^T286D, constitutively active mutant of full-length human CaMKIIα (enzyme)
